For test [1], the system named is bile salts. The test is described as follows: Specificity testing of the CadC-TcpP bactosensor across a panel of twelve bile salts.
In test [2] the test system is bile salts. In kind it is cell-based, E. coli. The conditions noted are these: kinetic analysis, data not shown.
For a further test, the system named is Taurocholic acid. It is filed as cell-based, E. coli.

B1: TcpPwt: Wild-type V. cholerae TcpP bile salt sensing domain, loop NYEQ (SEQ ID NO:4/24), fused to E. coli CadC DNA binding domain (SEQ ID NO:48) (protein)
chain: MQQPVVRVGEWLVTPSINQISRNGRQLTLEPRLIDLLVFFAQHSGEVLSRDELIDNVWKRSIVTNHVVTQSISELRKSLKDNDEDSPVYIATVPKRGYKLMVPVIWYSEEEGEEIMLSSPPPIPEAVPATDSPSHSLNIQNTATPPEQSPVKSKRVVPYLVFSALYVALLPVIWWSYGQWYQHELAGITHDLRDLARLPGITIQKLSEQKLTFAIDQHQCSVNYEQKTLECTKN
modifications: Synthetic bile salts chimeric receptor
B1: the “response to secondary bile salts” value in the test on bile salts [1] was “did not respond”. Also, the “specificity across bile salts” value in the test on bile salts [1] (primary and secondary types) is listed as “highly specific for primary conjugated bile salts”.

B2: SV_3-3-18: TcpP bile salt sensing domain variant, loop VFSD (SEQ ID NO:10/30), CadC fusion SEQ ID NO:54; best engineered variant (protein)
chain: MQQPVVRVGEWLVTPSINQISRNGRQLTLEPRLIDLLVFFAQHSGEVLSRDELIDNVWKRSIVTNHVVTQSISELRKSLKDNDEDSPVYIATVPKRGYKLMVPVIWYSEEEGEEIMLSSPPPIPEAVPATDSPSHSLNIQNTATPPEQSPVKSKRVVPYLVFSALYVALLPVIWWSYGQWYQHELAGITHDLRDLARLPGITIQKLSEQKLTFAIDQHQCSVVFSDKTLECTKN
modifications: Synthetic bile salts chimeric receptor
In the case of B2, in the test with bile salts [2], the “response speed at low ligand concentration compared to wt TcpP” value was “faster response at low ligand concentration”.

B3: SV_3-3-16: TcpP bile salt sensing domain variant, loop DFLT (SEQ ID NO:9/29), CadC fusion SEQ ID NO:53 (protein)
chain: MQQPVVRVGEWLVTPSINQISRNGRQLTLEPRLIDLLVFFAQHSGEVLSRDELIDNVWKRSIVTNHVVTQSISELRKSLKDNDEDSPVYIATVPKRGYKLMVPVIWYSEEEGEEIMLSSPPPIPEAVPATDSPSHSLNIQNTATPPEQSPVKSKRVVPYLVFSALYVALLPVIWWSYGQWYQHELAGITHDLRDLARLPGITIQKLSEQKLTFAIDQHQCSVDFLTKTLECTKN
modifications: Synthetic bile salts chimeric receptor
Regarding B3, it took 42.1 µM to reach a half-maximal effect with Taurocholic acid (taurocholic acid (TCA) as ligand, GFP output) (EC50). The molecule further showed a Max fold change in the test with Taurocholic acid (taurocholic acid titration) of 75.73.

The values are drawn from US20230304023A1, “BILE SALTS B[…] USE THEREOF FOR DIAGNOSTIC AND T[…]” (INSERM (INSTITUT NATIONAL DE LA SANTÉ ET DE LA RECHERCHE …, priority 2020, published 2023).
